Test results reported in PMC5499591 (Nucleic Acids Research, 2017).
Changes are numbered by the printed parent chain. Numbers in names are those of the source.

T1: GST-Mcm10 (wild type) (Saccharomyces cerevisiae, UniProt P32354 1-571)
T1 sequence: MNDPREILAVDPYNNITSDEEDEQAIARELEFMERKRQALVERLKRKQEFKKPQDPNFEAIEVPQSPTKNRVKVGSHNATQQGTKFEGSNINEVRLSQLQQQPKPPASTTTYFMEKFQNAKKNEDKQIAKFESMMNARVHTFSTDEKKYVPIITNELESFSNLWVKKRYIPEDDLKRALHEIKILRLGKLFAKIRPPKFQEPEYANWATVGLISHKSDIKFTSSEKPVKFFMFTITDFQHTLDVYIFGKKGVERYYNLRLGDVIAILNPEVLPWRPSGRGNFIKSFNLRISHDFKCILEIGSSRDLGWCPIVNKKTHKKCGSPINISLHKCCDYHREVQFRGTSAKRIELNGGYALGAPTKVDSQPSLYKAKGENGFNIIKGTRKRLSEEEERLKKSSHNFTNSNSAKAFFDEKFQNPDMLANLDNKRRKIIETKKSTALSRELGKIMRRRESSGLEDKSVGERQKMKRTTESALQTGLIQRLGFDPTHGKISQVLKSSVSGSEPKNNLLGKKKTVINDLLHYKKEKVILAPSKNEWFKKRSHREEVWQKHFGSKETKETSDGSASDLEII

T2: wild-type GST-Mcm10 (Saccharomyces cerevisiae, UniProt P32354 1-571)
T2 sequence: T1 sequence

T3: GST-p180 (budding yeast (S. cerevisiae), UniProt P13382 1-1468)
T3 sequence: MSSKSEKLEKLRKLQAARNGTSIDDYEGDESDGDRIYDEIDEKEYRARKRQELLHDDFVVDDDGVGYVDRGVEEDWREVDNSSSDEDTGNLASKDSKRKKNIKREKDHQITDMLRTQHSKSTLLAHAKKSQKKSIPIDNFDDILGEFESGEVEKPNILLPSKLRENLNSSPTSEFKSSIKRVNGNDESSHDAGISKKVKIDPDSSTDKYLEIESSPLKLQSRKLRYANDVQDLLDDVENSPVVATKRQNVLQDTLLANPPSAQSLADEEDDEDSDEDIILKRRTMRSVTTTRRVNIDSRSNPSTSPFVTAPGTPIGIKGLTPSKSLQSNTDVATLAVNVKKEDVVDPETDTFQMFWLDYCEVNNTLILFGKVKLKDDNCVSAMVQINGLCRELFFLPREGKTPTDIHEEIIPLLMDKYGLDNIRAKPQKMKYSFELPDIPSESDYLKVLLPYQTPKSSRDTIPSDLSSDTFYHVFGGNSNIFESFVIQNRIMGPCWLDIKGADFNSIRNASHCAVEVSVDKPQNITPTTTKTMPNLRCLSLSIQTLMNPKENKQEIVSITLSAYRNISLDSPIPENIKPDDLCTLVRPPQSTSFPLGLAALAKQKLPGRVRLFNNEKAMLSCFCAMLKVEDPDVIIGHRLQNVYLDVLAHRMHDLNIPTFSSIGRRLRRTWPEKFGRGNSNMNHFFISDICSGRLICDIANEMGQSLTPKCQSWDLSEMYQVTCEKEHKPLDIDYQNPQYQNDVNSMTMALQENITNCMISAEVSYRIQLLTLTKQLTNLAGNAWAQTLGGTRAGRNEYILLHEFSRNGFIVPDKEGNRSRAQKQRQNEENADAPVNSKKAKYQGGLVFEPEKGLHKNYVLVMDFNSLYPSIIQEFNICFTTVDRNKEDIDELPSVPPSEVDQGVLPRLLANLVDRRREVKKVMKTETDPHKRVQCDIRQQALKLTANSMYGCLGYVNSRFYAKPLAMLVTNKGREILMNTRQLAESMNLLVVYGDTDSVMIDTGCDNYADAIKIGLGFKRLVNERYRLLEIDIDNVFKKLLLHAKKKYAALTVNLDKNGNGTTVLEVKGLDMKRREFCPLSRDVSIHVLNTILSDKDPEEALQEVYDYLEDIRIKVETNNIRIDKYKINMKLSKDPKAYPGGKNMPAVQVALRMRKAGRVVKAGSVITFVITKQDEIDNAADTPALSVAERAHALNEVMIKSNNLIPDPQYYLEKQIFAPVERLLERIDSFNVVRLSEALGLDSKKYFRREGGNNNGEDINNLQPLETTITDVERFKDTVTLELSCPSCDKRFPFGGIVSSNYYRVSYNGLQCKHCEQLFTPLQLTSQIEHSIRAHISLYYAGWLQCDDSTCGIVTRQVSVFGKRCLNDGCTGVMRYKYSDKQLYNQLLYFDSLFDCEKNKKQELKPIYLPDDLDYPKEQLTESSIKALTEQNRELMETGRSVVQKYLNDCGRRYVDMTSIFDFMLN

T4: GST-Dbf4 (budding yeast (S. cerevisiae), UniProt P32325 1-704)
T4 sequence: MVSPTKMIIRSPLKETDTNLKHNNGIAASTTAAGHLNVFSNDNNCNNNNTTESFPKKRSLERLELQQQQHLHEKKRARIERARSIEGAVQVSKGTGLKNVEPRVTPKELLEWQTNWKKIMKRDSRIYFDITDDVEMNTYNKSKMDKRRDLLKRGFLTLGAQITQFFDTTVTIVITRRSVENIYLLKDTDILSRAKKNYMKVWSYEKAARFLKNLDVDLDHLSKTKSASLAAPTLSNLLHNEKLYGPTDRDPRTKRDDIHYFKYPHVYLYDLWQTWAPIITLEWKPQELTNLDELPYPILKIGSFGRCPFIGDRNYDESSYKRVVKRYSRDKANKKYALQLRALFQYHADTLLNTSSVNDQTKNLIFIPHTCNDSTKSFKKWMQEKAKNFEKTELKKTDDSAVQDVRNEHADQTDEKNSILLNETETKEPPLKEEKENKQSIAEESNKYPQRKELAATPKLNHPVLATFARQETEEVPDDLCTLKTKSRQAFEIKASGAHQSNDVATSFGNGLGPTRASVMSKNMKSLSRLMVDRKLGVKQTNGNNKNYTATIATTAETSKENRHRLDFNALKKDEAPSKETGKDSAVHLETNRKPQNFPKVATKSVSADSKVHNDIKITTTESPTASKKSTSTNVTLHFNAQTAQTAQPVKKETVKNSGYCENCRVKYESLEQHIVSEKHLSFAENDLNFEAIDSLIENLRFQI

T5: GST-Cdc45 (budding yeast (S. cerevisiae), UniProt Q08032 1-650)
T5 sequence: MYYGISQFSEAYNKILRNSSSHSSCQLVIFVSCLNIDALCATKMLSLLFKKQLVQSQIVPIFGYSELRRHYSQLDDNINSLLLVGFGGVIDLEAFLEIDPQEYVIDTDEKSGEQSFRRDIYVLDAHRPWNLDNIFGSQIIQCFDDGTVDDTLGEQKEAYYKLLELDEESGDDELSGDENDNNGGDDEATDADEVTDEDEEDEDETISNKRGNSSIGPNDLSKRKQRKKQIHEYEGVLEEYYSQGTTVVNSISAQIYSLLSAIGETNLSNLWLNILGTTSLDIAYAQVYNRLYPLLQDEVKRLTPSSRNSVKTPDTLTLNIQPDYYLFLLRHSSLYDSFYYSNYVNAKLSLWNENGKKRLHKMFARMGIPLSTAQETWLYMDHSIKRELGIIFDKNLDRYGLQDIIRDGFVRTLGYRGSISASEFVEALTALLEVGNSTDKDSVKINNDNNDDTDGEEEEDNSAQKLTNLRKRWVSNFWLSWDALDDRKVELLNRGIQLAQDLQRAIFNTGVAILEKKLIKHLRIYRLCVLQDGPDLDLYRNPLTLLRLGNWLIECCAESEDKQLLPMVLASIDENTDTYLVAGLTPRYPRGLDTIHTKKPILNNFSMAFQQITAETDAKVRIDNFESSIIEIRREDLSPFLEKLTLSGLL

T6: GST-Mcm10-4A (Saccharomyces cerevisiae, UniProt P32354 1-571, I26A;L30A;R37A;L40A)
T6 sequence: T1 sequence with I26A, L30A, R37A, L40A

B1: 80mer ssDNA (80dT) (ssDNA)
DNA: TTTTTTTTTTTTTTTTTTTTTTTTTTTTTTTTTTTTTTTTTTTTTTTTTTTTTTTTTTTTTTTTTTTTTTTTTTTTTTTT
B2: blunt dsDNA (called 30mer) (dsDNA)
DNA 1: ATGTCCTAGCAAGCCAGAATTCGGCAGCGTC
DNA 2: GACGCTGCCGAATTCTGGCTTGCTAGGACAT
B3: radiolabeled wild-type PKA-Mcm10 (natural protein)
chain: T1 sequence
modifications: 32P label put on the PKA tag by protein kinase A with [gamma-32P]-ATP
B4: GST-Mcm10-4A (Mcm10-I26A-L30A-R37A-L40A) (natural protein)
chain: T1 sequence with I26A, L30A, R37A, L40A
B5: radiolabeled PKA-Mcm10-4A (Mcm10-I26A-L30A-R37A-L40A) (natural protein)
chain: T1 sequence with I26A, L30A, R37A, L40A
modifications: 32P label put on the PKA tag by protein kinase A with [gamma-32P]-ATP
B6: 25mer ssDNA (ssDNA)
DNA: ATGTCCTAGCAAGCCAGAATTCGGC

Tests used:
[1] = target: T1, GST-Mcm10 (wild type); assay: GST pull-down
[2] = target: T2, wild-type GST-Mcm10; assay: pull-down
[3] = target: T3, GST-p180; assay: pull-down
[4] = target: radiolabeled PKA-Mcm2–7 complex (budding yeast (S. cerevisiae), UniProt P29469;P24279;P30665;P29496;P53091;P38132); assay: pull-down
[5] = target: T4, GST-Dbf4; assay: pull-down
[6] = target: T5, GST-Cdc45; assay: pull-down
[7] = target: T6, GST-Mcm10-4A; assay: GST pull-down

Binder | binding result [1] | binding result [3] | further results
B1 | binds |  | 
B2 | binds |  | 
B3 |  | binds | binding result [2]: binds
B4 |  |  | binding result [4]: binds
B5 |  | binds | binding result [5]: binds; binding result [6]: binds
B6 | binds |  | binding result [7]: binds
